Assays:
histone 4 = histone 4 (UniProt P62803)
histone 2B = histone 2B (UniProt P62808)
rat prolactin = rat prolactin (UniProt P01237)
myelin basic protein = myelin basic protein (UniProt P02687)
Sequence of myelin basic protein (P02687 whole entry): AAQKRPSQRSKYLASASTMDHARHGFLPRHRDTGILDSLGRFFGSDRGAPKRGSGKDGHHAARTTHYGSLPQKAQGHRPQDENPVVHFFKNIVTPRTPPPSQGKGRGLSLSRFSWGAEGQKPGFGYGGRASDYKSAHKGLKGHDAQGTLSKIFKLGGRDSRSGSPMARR

Sequence of rat prolactin (P01237 30-226): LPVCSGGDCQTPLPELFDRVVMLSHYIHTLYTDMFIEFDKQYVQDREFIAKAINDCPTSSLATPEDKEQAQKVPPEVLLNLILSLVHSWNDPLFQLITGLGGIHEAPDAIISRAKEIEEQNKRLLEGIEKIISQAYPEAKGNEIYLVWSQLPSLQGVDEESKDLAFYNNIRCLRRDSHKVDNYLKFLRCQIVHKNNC

Protein kinase C purified from bovine brain
32P incorporated (PKRASAA): 8.7 pmol/unit | 32P incorporated, % (AKRASAA = 100) (PKRASAA): 264% | 32P incorporated (KKRKSAA): 11.1 pmol/unit | 32P incorporated, % (AKRASAA = 100) (KKRKSAA): 370% | 32P incorporated (AKRPSAA): 3.9 pmol/unit | 32P incorporated, % (AKRASAA = 100) (AKRPSAA): 118% | 32P incorporated (ARKASAA): 5.7 pmol/unit | 32P incorporated, % (AKRASAA = 100) (ARKASAA): 173% | 32P incorporated (RKKKSAA): 3.1 pmol/unit | 32P incorporated, % (AKRASAA = 100) (RKKKSAA): 94% | 32P incorporated (AAAASKR): 13.3 pmol/unit | 32P incorporated, % (AKRASAA = 100) (AAAASKR): 403% | 32P incorporated (AKRASEA): 0.2 pmol/unit | 32P incorporated, % (AKRASAA = 100) (AKRASEA): 6% | 32P incorporated (AKRESAA): 0.4 pmol/unit | 32P incorporated, % (AKRASAA = 100) (AKRESAA): 12% | 32P incorporated (ARRASAA): 18.8 pmol/unit | 32P incorporated, % (AKRASAA = 100) (ARRASAA): 570% | 32P incorporated (EKRASAA): 0.1 pmol/unit | 32P incorporated, % (AKRASAA = 100) (EKRASAA): 3% | 32P incorporated (AKRASAA): 3 pmol/unit | 32P incorporated, % (AKRASAA = 100) (AKRASAA): 100%

active γ-PAK (mode of activation not stated for this experiment)
32P incorporated (PKRASAA): 40.5 pmol/unit | 32P incorporated, % (AKRASAA = 100) (PKRASAA): 151% | Km (PKRASAA): 240 µM | Km relative to AKRASAA (PKRASAA): decreased the Km by ≈2-fold as compared to AKRASAA | Vmax (PKRASAA): 1.1 pmol/min | Vmax/Km (pmol min^-1 mM^-1) (PKRASAA): 4.6 | phosphorylation rate (Vmax/Km) relative to AKRASAA (PKRASAA): an overall effect of a 2-fold increase in the phosphorylation rate | Km (AARASAA): 1880 µM | Vmax (AARASAA): 2.27 pmol/min | Vmax/Km (pmol min^-1 mM^-1) (AARASAA): 1.2 | rate of phosphorylation (reference) (ARRASVA): ARRASVA (SEQ ID NO:17) (100%) | 32P incorporated (KKRKSAA): 19.2 pmol/unit | 32P incorporated, % (AKRASAA = 100) (KKRKSAA): 72% | Km (KKRKSAA): 610 µM | Vmax (KKRKSAA): 1.84 pmol/min | Vmax/Km (pmol min^-1 mM^-1) (KKRKSAA): 3 | substrate or not (rac1): Proteins that are not substrates for γ-PAK, such as casein, histone 1, cdc42, and rac1 (data not shown) | Km (AKRASGA): 2090 µM | Km relative to AKRASAA (AKRASGA): increased the Km by 4-fold and the Vmax by 3-fold | Vmax (AKRASGA): 3.49 pmol/min | Vmax relative to AKRASAA (AKRASGA): increased the Km by 4-fold and the Vmax by 3-fold | Vmax/Km (pmol min^-1 mM^-1) (AKRASGA): 1.7 | 32P incorporated (histone 4): 8.3 pmol | rel rate (%) (histone 2B = 100) (histone 4): 74% | 32P incorporated (histone 2B): 11 pmol | rel rate (%) (histone 2B = 100) (histone 2B): 100% | Km (AKRASPA): > 5000 µM | 32P incorporated (AKRPSAA): 1.2 pmol/unit | 32P incorporated, % (AKRASAA = 100) (AKRPSAA): 5% | Km (AKRPSAA): > 5000 µM | 32P incorporated (ARKASAA): 0.9 pmol/unit | 32P incorporated, % (AKRASAA = 100) (ARKASAA): 3% | Km (ARKASAA): > 5000 µM | substrate or not (cdc42): Proteins that are not substrates for γ-PAK, such as casein, histone 1, cdc42, and rac1 (data not shown) | Km (AKRGSAA): 3520 µM | Km relative to AKRASAA (AKRGSAA): increased the Km by 7-fold over that of the peptide containing alanine at that position | Vmax (AKRGSAA): 6.44 pmol/min | Vmax relative to AKRASAA (AKRGSAA): the Vmax was increased by 6-fold | Vmax/Km (pmol min^-1 mM^-1) (AKRGSAA): 1.8 | Km (AKAASAA): > 5000 µM | 32P incorporated (RKKKSAA): 0.1 pmol/unit | 32P incorporated, % (AKRASAA = 100) (RKKKSAA): 0% | Km (KKRASAA): 370 µM | Vmax (KKRASAA): 1.59 pmol/min | Vmax/Km (pmol min^-1 mM^-1) (KKRASAA): 4.3 | Vmax/Km relative to AKRASAA (KKRASAA): ˜2 fold higher than that of AKRASAA | 32P incorporated (rat prolactin): 1.8 pmol | rel rate (%) (histone 2B = 100) (rat prolactin): 17% | 32P incorporated (myelin basic protein): 4.2 pmol | rel rate (%) (histone 2B = 100) (myelin basic protein): 37% | rate of phosphorylation relative to ARRASVA (ARAASVA): phosphorylated at a slower rate (40%) compared to ARRASVA (SEQ ID NO:17) (100%) | 32P incorporated (AAAASKR): 0 pmol/unit | 32P incorporated, % (AKRASAA = 100) (AAAASKR): 0% | 32P incorporated (AKRASEA): 18.3 pmol/unit | 32P incorporated, % (AKRASAA = 100) (AKRASEA): 68% | Km (AKRASEA): 1420 µM | Km relative to AKRASAA (AKRASEA): Glutamate in the -1 or +1 position increased the Km by ˜3-fold | Vmax (AKRASEA): 2.22 pmol/min | Vmax relative to AKRASAA (AKRASEA): >2-fold increase in the Vmax when glutamate was in the -4 or +1 position | Vmax/Km (pmol min^-1 mM^-1) (AKRASEA): 1.6 | Vmax/Km relative to AKRASAA (AKRASEA): 0.7-fold when glutamate was in the +1 position of AKRASEA | 32P incorporated (AKRESAA): 47.2 pmol/unit | 32P incorporated, % (AKRASAA = 100) (AKRESAA): 176% | Km (AKRESAA): 1350 µM | Km relative to AKRASAA (AKRESAA): Glutamate in the -1 or +1 position increased the Km by ˜3-fold | Vmax (AKRESAA): 6.62 pmol/min | Vmax relative to AKRASAA (AKRESAA): 6-fold higher than with AKRASAA | Vmax/Km (pmol min^-1 mM^-1) (AKRESAA): 4.9 | Vmax/Km relative to AKRASAA (AKRESAA): an increase in the overall rate (Vmax/Km) of ˜2.2-fold | 32P incorporated (ARRASAA): 25 pmol/unit | 32P incorporated, % (AKRASAA = 100) (ARRASAA): 93% | Km (ARRASAA): 650 µM | Vmax (ARRASAA): 2.11 pmol/min | Vmax/Km (pmol min^-1 mM^-1) (ARRASAA): 3.2 | 32P incorporated (EKRASAA): 30.2 pmol/unit | 32P incorporated, % (AKRASAA = 100) (EKRASAA): 113% | Km (EKRASAA): 890 µM | Km relative to AKRASAA (EKRASAA): the Km was increased by 2-fold when glutamate was in the -4 position | Vmax (EKRASAA): 2.48 pmol/min | Vmax relative to AKRASAA (EKRASAA): >2-fold increase in the Vmax when glutamate was in the -4 or +1 position | Vmax/Km (pmol min^-1 mM^-1) (EKRASAA): 2.8 | Vmax/Km relative to AKRASAA (EKRASAA): 1.3-fold with glutamate in the -4 position | 32P incorporated (histone 1): 0 pmol | rel rate (%) (histone 2B = 100) (histone 1): 0% | 32P incorporated (AKRASAA): 26.8 pmol/unit | 32P incorporated, % (AKRASAA = 100) (AKRASAA): 100% | Km (AKRASAA): 460 µM | Vmax/Km (pmol min^-1 mM^-1) (AKRASAA): 2.2 | substrate or not (casein): Proteins that are not substrates for γ-PAK, such as casein, histone 1, cdc42, and rac1 (data not shown) | 32P incorporated (protamine): 0 pmol | rel rate (%) (histone 2B = 100) (protamine): 0% | Km (AKRKSAA): 480 µM | Vmax (AKRKSAA): 2.34 pmol/min | Vmax/Km (pmol min^-1 mM^-1) (AKRKSAA): 4.8 | Vmax/Km relative to AKRASAA (AKRKSAA): ˜2 fold higher than that of AKRASAA

γ-PAK activated by limited digestion with trypsin
32P incorporated, proteolytically activated (pmol min^-1 µg^-1) (PKRASAA): 636 | rel rate (%), proteolytically activated (KKRKSAA = 100) (PKRASAA): 209% | 32P incorporated, proteolytically activated (pmol min^-1 µg^-1) (AARASAA): 169 | rate of phosphorylation relative to AKRASAA (AARASAA): significantly slower rate (40 and 56%) as compared to AKRASAA (SEQ ID NO:6) and KKRKSAA (SEQ ID NO:8), respectively | rel rate (%), proteolytically activated (KKRKSAA = 100) (AARASAA): 56% | 32P incorporated, proteolytically activated (pmol min^-1 µg^-1) (KKRKSAA): 302 | rel rate (%), proteolytically activated (KKRKSAA = 100) (KKRKSAA): 100% | 32P incorporated, proteolytically activated (pmol min^-1 µg^-1) (AAKKSAA): 0 | rel rate (%), proteolytically activated (KKRKSAA = 100) (AAKKSAA): 0% | 32P incorporated, proteolytically activated (pmol min^-1 µg^-1) (AKRASGA): 324 | rel rate (%), proteolytically activated (KKRKSAA = 100) (AKRASGA): 107% | 32P incorporated, proteolytically activated (pmol min^-1 µg^-1) (AAKRSAA): 0 | rel rate (%), proteolytically activated (KKRKSAA = 100) (AAKRSAA): 0% | 32P incorporated, proteolytically activated (pmol min^-1 µg^-1) (AKRASPA): 0 | rel rate (%), proteolytically activated (KKRKSAA = 100) (AKRASPA): 0% | 32P incorporated, proteolytically activated (pmol min^-1 µg^-1) (AKRPSAA): 16 | rel rate (%), proteolytically activated (KKRKSAA = 100) (AKRPSAA): 6% | 32P incorporated, proteolytically activated (pmol min^-1 µg^-1) (ARKASAA): 16 | rel rate (%), proteolytically activated (KKRKSAA = 100) (ARKASAA): 6% | 32P incorporated, proteolytically activated (pmol min^-1 µg^-1) (AKRGSAA): 381 | rel rate (%), proteolytically activated (KKRKSAA = 100) (AKRGSAA): 126% | 32P incorporated, proteolytically activated (pmol min^-1 µg^-1) (AKAASAA): 5 | rel rate (%), proteolytically activated (KKRKSAA = 100) (AKAASAA): 2% | 32P incorporated, proteolytically activated (pmol min^-1 µg^-1) (RKKKSAA): 0 | rel rate (%), proteolytically activated (KKRKSAA = 100) (RKKKSAA): 0% | 32P incorporated, proteolytically activated (pmol min^-1 µg^-1) (KKRASAA): 586 | rel rate (%), proteolytically activated (KKRKSAA = 100) (KKRASAA): 193% | 32P incorporated, proteolytically activated (pmol min^-1 µg^-1) (AAAASKR): 0 | rel rate (%), proteolytically activated (KKRKSAA = 100) (AAAASKR): 0% | 32P incorporated, proteolytically activated (pmol min^-1 µg^-1) (AKRASEA): 326 | rate of phosphorylation relative to AKRASAA (AKRASEA): a glutamate residue in the +1 position decreased the rate to 71% | rel rate (%), proteolytically activated (KKRKSAA = 100) (AKRASEA): 108% | 32P incorporated, proteolytically activated (pmol min^-1 µg^-1) (AKRESAA): 750 | rate of phosphorylation relative to AKRASAA (AKRESAA): increased the rate of phosphorylation relative to AKRASAA (SEQ ID NO:6) to 175 and 113%, respectively | rel rate (%), proteolytically activated (KKRKSAA = 100) (AKRESAA): 247% | 32P incorporated, proteolytically activated (pmol min^-1 µg^-1) (ARRASAA): 391 | rel rate (%), proteolytically activated (KKRKSAA = 100) (ARRASAA): 129% | 32P incorporated, proteolytically activated (pmol min^-1 µg^-1) (EKRASAA): 484 | rate of phosphorylation relative to AKRASAA (EKRASAA): increased the rate of phosphorylation relative to AKRASAA (SEQ ID NO:6) to 175 and 113%, respectively | rel rate (%), proteolytically activated (KKRKSAA = 100) (EKRASAA): 160% | 32P incorporated, proteolytically activated (pmol min^-1 µg^-1) (AKRASAA): 426 | rel rate (%), proteolytically activated (KKRKSAA = 100) (AKRASAA): 141% | 32P incorporated, proteolytically activated (pmol min^-1 µg^-1) (KKAASAA): 0 | rel rate (%), proteolytically activated (KKRKSAA = 100) (KKAASAA): 0% | 32P incorporated, proteolytically activated (pmol min^-1 µg^-1) (AKRKSAA): 548 | rel rate (%), proteolytically activated (KKRKSAA = 100) (AKRKSAA): 181%
